This is an account of results in patent US20190153113A1, “CD39 VASCULAR ISOFORM TARGETING AGENTS” (INNATE PHARMA, priority 2015, published 2019).

Assay [1] addresses T1, human CD39 at cell surface (Homo sapiens, UniProt P49961).
T1 construct: cells that endogenously express CD39 at their surface, e.g. regulatory T (TReg) cells, B cells, cancer cells, lymphoma cells (e.g. Ramos cells); endogenous in cells; host or cells: Ramos human lymphoma cells
T1 sequence (P49961 1-510): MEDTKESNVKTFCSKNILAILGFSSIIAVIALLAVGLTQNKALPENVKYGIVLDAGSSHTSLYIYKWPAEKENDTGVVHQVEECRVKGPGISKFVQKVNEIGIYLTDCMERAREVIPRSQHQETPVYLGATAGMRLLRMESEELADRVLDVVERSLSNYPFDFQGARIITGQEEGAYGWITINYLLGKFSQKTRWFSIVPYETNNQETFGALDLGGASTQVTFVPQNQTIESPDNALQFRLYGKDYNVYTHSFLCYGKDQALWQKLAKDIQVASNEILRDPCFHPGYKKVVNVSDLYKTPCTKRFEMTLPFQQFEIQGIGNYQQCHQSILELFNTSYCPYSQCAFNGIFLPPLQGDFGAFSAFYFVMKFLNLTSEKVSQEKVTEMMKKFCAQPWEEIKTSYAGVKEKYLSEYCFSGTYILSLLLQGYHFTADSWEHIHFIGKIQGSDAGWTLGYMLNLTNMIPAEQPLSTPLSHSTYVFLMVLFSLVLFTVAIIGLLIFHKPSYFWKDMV
Description: CD39 down-modulation / internalization on Ramos cells. Conditions: Ramos human lymphoma cells, 10 μg/ml, 4° C. or 37° C. The class given is cell-based.

The target in assay [2] is T2, Recombinant human CD39-L3 (NTPDase3, ENTPD3) (human, UniProt O75355 44-485, limits assumed).
T2 construct: Coated in ELISA
T2 sequence: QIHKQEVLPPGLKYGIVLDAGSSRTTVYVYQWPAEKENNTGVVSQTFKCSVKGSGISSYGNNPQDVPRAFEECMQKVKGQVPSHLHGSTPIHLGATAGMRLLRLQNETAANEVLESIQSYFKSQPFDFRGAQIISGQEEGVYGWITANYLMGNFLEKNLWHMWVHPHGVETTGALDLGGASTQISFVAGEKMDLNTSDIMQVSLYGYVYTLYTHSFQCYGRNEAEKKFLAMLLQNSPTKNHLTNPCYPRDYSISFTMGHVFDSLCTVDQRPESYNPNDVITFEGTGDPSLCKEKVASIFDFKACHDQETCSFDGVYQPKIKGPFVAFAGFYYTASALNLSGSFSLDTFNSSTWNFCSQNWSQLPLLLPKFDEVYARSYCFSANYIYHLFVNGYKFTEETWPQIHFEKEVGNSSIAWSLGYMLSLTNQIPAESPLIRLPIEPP
Description: ELISA on coated RechuCD39-L3, OD 450 nm [top panel CHS2-I-391]. As for the experimental part: Wells were washed in TBS Tween 20, and further saturated 2H at RT in TBS Blocking buffer. Dose range concentration of primary antibody was incubated in TBS blocking buffer for 2h at RT. Wells were washed in TBS Tween 20. […] Optical density was measured on Enspire at OD=450.

For assay [3], the target named is T3, Cynomolgus CD39 expressed on HEK cells (cynomolgus, UniProt A0A7N9DGH8 1-510).
T3 construct: whole, on cells; also called cynoCD39; cynomolgus vascular CD39
T3 sequence: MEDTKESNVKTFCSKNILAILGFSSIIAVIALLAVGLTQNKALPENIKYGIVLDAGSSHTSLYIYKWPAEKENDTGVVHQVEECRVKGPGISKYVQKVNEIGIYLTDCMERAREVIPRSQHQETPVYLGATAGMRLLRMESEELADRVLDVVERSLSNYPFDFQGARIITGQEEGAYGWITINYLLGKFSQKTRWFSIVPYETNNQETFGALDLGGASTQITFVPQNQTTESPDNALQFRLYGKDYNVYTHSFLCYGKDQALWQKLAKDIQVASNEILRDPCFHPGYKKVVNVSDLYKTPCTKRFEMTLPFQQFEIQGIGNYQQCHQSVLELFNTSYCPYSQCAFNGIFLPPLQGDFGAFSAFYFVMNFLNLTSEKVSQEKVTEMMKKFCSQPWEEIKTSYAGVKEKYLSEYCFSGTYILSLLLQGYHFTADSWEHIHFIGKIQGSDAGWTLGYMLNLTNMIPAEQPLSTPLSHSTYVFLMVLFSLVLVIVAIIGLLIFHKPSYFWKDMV
Description: flow cytometry on HEK cells expressing cynomolgus CD39, antibody 99 nM to 0.045 nM (FIG. 1 legend says ELISA). The procedure: Briefly, 1×10⁵ HEK-huCD39or cynoCD39 cells were incubated with various concentration of unlabeled anti-CD39 antibody or isotype control (IC) from 99 nM to 0.045 nM, for 30 minutes at 4° C. After washes, cells were incubated with Goat anti-mouse H+L labeled secondary antibody for 30 min at 4° C.

Assay [4] concerns the target T4, CD39 mutant 15 (K87A, E100A, D107A) (human, UniProt P49961 1-510).
T4 construct: Transfected in HEK293T cells
T4 chain: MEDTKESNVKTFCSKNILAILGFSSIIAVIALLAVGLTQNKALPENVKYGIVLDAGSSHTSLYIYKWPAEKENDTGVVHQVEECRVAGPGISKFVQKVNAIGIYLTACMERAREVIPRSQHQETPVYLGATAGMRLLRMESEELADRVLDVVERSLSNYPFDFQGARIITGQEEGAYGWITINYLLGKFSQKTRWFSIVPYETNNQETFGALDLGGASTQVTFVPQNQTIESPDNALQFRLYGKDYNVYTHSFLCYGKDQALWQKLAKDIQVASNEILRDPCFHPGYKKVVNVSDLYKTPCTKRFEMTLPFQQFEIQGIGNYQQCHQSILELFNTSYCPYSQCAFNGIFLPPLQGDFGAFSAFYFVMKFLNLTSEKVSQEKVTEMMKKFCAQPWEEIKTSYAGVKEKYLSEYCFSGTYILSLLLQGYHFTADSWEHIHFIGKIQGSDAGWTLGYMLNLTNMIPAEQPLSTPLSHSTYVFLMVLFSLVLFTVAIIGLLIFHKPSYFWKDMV
Description: flow cytometry, HEK293T cells transfected with mutant 15.

B1: I-392: anti-CD39 antibody, VH SEQ ID NO: 8 and VL SEQ ID NO: 9, chimeric human IgG1 with N297Q mutation (antibody, V domains shown)
VH: QIQLVQSGPEVKKPRETVKISCKASGYTFTHYGMNWVKQAPGKGLKWMGWINTYTGEPTYADDFKGRFAFSLEASASTAYLQINNLKNEDTATYFCARRRYEGNYVFYYFDYWGQGTTLTVSS
VL: DIQMTQSPASLSASVGETVTITCRASENIYSYFSWYQQKQGKSPQLLVYTAKTLAEGVPSRFSGSGSGTQFSLKINSLQPEDFGSYYCQHHYVTPYTFGGGTKLEIK
On to B1, for which the “CD39 down modulation / internalization” value in assay [1] is recorded as “do not induce CD39 down modulation nor CD39 internalization”.

B2: Antibody I-391, Fc silent recombinant chimeric human IgG1 with heavy chain N297Q mutation (antibody, V domains shown)
VH: QIQLVQSGPELKKPGETVKISCKASGYTFRNYGMNWVKQAPGKGLKWMGWINTYTGEPTYADDFKGRFAFSLATSASTAYLQISNLKNEDTATYFCARKAYYGSNYYFDYWGQGTTLTVSS
VL: DIVMTQSHKFMSTSVGDRVSITCKASQDVSTAVAWYQQKPGQSPKLLIYSASYRYTGVPDRFTGSGSGTDFTFTISTVQAEDLAVYYCQQHYTTPPYTFGGGTKLEIKR
Consider B2, for which the results for the binding result in assay [2] and in assay [4] were “no binding (tested: 50 ug/ml)” and “binds”, respectively. In assay [3], the 50% effective concentration (EC50) was 10.6 nM.
